Assay results reported in patent US20240247073A1 (CONCEPT TO MEDICINE BIOTECH, published 2024).
Residue numbers refer to the chain shown, from its start.

Key:
[1] = target: T1, human CD40 on the cell surface (human, UniProt P25942 21-277); assay: flow cytometry on human monocyte-derived dendritic cells (CD11c+ gate), PE anti-human IgG Fc, MFI
T1 construct: whole, on cells; also called cell surface CD40; Jurkat-CD40 cells

human CD40-His protein [2] = target: T2, human CD40-His protein (human, UniProt P25942 21-193); assay: ELISA, coated human CD40-His
T2 construct: Recombinant His-tagged protein; also called human CD40-his tag; recombinant CD40 protein; not shown: His tag
T2 sequence (P25942 21-193 limits assumed): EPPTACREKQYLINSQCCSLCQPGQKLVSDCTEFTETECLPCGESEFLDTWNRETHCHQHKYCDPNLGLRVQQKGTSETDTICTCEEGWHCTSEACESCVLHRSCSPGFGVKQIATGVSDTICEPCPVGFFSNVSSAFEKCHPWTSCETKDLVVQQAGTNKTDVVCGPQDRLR
Method: (§1) Briefly, microtiter plates were coated with human CD40-His protein at 1.0 μg/ml in PBS, 100 μl/well at 4° C. overnight, then blocked with 150 μl/well of 1% BSA. Ten-fold dilutions of 42p155, 2p834, 2p931, 42p655, 2p1294, 2p957, 42p495, 3p78, 2p415, 2p442, 2p551, 2p80 and 2p1130 antibodies starting from 100 nM were added to each well and incubated for 1 hour at RT. The plates were washed with PBS/Tween and then incubated with Anti-Human IgG (H&L) (GOAT) Antibody Peroxidase Conjugated for 30 mins at RT. After washing, the plates were developed with TMB substrate and analyzed by spectrophotometer at OD 450 nm.

[3] = target: T3, cynomolgus CD40-His protein (cynomolgus, UniProt G7PG38 21-193); assay: ELISA, coated cynomolgus CD40-His
T3 construct: Recombinant His-tagged protein; also called cyno CD40 antigen; not shown: His tag
Method: as §1, with “The binding affinity of these clones to cynomolgus CD40 was also tested. Microtiter” for “Briefly, microtiter”, “cynomolgus” for “human”, “4 °C” for “4° C.”, “nm. As shown in FIG. 1B and Table 2, all these clones bound to cynomolgus CD40 at high activity, showing good cross-reactivity between human and cynomolgus CD40 proteins.” for “nm.”

human CD40-His protein [4] = target: T2, human CD40-His protein; assay: SPR (Biacore T200), antibody captured on Protein A
Method: The binding of the humanized 42pl55 and 2p442 antibodies to recombinant human CD40 protein (human CD40-his tag) was tested by Biacore and Octet, respectively, using a capture method.
For humanized 42pl55 monoclonal antibodies, 42p155z2 and 42p155z3 were captured using Protein A chip. A serial dilution of human CD40-his tag protein was injected over captured antibody for 3 mins at a flow rate of 10 μl/min. The antigen was allowed to dissociate for 6 min. All the experiments were carried out on a Biacore T200. Data analysis was carried out using Biacore T200 evaluation software.

[5] = target: T1, human CD40 on the cell surface; assay: flow cytometry on Jurkat cells overexpressing human CD40, PE anti-human IgG, MFI
Method: To evaluate their binding affinity to cell surface CD40, chimeric anti-CD40 monospecific antibodies were tested in Jurkat cell lines that overexpressed CD40 by FACS. A total number of 1×10⁵ Jurkat-CD40 cells in each well were incubated with 10-fold serially diluted antibodies starting from 100 nM for 30 minutes at 4° C. in FACS buffer. After wash by FACS buffer, PE conjugated-anti-human IgG antibody was added to each well and incubated at 4 °C for 30 minutes. After wash, MFI of PE was evaluated by MACSQuant Analyzer 16.

T1 sequence (P25942 21-277): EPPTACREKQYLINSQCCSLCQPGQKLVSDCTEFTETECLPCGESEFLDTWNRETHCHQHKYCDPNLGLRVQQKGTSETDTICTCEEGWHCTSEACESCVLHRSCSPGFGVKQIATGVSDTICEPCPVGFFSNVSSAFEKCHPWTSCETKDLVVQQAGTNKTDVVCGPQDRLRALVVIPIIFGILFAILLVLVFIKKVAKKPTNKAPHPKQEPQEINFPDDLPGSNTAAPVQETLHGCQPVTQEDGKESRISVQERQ

B1: 2p834 anti-Claudin 18.2/CD40 bispecific antibody (bispecific antibody, part only; not given: Claudin 18.2 Fab, constant regions, linker, V domains shown, not shown: another chain or arm of the molecule; a dimerising Fc or GST; small tags and cut ends)
VHH: QSQLVESGGGLVQPGGSLRLSCAASGFAFRRYTMSWVRQAPGKGLEWVSTITHNGSITTYAESAQGRFTISRDNAKNTLYLQMNSLKPEDTAVYYCAQGGGSNYYRESWGQGTQVTVSS
EC50 (read off the curve) [1]: 1 nM

B2: 42p155 chimeric monospecific antibody (antibody, V domains shown)
VH: B1 VHH with Q1P, R31S, S56A
notes: VHH-chimeric monospecific antibody (cAb), detected with anti-human IgG; also called 42pl55; not shown: human constant part (Fc) of the chimeric VHH antibody
EC50 (human CD40-His protein [2]): 1.73 nM
EC50 [3]: 0.9 nM
Kd (human CD40-His protein [4]): 86.9 nM
koff (human CD40-His protein [4]): 0.0451 s⁻¹
kon (human CD40-His protein [4]): 519000 M⁻¹ s⁻¹
EC50 (read off the curve) [5]: ~0.3 nM

B3: 2p1294 chimeric monospecific antibody (antibody, V domains shown)
VH: B1 VHH with S2V, A28S, T50A, T52S, H53D, S56A, A61T
notes: VHH-chimeric monospecific antibody (cAb), detected with anti-human IgG
EC50 (read off the curve) [5]: ~0.3 nM

B4: 42p495 chimeric monospecific antibody (antibody, V domains shown)
VH: PVQLVESGGNLVQPGGSLRLSCVAPGFTSRNSAMSWVRQAPGKGLEWVSTIYSGKSNTDYADSVKGRFTISTDNAKNTLYLHMNKLKSEDTAVYYCAKGAASDWYVPRDYWGQGTQVTVSS
notes: as for B3
EC50 (read off the curve) [5]: ~2 nM

B5: 2p957 chimeric monospecific antibody (antibody, V domains shown)
VH: PVQLVESGGGLVQPGGSLRLSCAASGFSFRNYIMSWVRQAPGKGLEWLSSITNSGGITSYTESVKGRFTISRDNAKNTLYLQMNSLKPEDTAVYYCAQGGSDNYYRGSWGQGTQVTVSS
notes: as for B3
EC50 (read off the curve) [5]: ~3 nM
